The source of these data is paper PMC2650857.

Test [1] has as its target MOP receptor stably expressed in CHO-K1 cells (plasma membranes) (UniProt P35372). Kind of test: radioligand binding.
For test [2] the target is unchanged. The test is described as follows: radioligand binding. This is another data set of the same source.

Like-named read-outs stand apart in the source and are kept apart here.

Chain of UniProt P35372 (P35372 whole entry): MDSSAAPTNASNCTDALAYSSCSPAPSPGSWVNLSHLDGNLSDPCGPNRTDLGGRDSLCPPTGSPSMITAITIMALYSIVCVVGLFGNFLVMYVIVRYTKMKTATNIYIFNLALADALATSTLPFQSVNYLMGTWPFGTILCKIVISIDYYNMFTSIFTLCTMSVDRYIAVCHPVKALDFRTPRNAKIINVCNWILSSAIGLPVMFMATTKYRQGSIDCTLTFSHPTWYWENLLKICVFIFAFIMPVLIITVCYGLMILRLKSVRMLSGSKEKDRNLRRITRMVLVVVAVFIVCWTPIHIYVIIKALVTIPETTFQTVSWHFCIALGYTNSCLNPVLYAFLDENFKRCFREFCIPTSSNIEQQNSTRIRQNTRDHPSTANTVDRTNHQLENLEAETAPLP

Turning to “DAMGO, [D-Ala^2, NMePHe^4, Gly^5-ol]enkephalin (peptide)”, the Ki – broadly, a measure of affinity in units of concentration, obtained from inhibition or displacement – in test [1] worked out at 6.7 nM; in test [2], 11 nM.
